In patent US20210139582A1:

Tests used:
[1] = target: C-terminus biotinylated monomeric human CD32a^R (FcγRIIa, arginine-131 variant), recombinant (human) (UniProt P12318); test: SPR, estimated steady state KD, monomeric IgG, pH 7.4
[2] = target: C-terminus biotinylated monomeric human CD32a^H (FcγRIIa, histidine-131 variant), recombinant (human) (UniProt P12318); test: as above
Sequence of C-terminus biotinylated monomeric human CD32a^H (FcγRIIa, histidine-131 variant), recombinant (human) (P12318 34-218 limits assumed, change not shown): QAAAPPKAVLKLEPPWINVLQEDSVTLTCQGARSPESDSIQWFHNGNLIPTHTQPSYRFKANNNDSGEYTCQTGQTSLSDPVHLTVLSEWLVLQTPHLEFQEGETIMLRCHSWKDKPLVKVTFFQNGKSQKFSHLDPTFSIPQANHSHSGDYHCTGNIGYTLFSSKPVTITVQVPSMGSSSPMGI

Sequence of C-terminus biotinylated monomeric human CD32a^R (FcγRIIa, arginine-131 variant), recombinant (human) (P12318 other isoform, or with tags, fused parts or gaps mutant): as the sequence (P12318 34-218 limits assumed, change not shown) above, with H134R counted along it
Sequence of anti-NIP mouse IgG2a (mIgG2a^WT) (antibody) (P01863 whole entry): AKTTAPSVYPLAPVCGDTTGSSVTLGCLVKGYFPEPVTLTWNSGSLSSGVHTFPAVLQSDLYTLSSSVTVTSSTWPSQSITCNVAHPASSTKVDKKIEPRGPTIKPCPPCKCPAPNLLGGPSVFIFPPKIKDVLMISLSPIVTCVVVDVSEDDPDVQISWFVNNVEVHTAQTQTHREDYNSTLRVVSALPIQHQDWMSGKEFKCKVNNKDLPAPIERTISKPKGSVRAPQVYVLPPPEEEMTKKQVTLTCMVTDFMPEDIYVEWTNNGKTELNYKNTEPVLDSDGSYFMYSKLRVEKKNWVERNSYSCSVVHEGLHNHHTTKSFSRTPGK

| Substance | Kd [1] [µM] | Kd [2] [µM] |
| --- | --- | --- |
| anti-NIP hIgG1-I253A/H310A/H435A (hIgG1^IHH) (from UniProt P01857 1-330) (antibody) | 3.7 | – |
| anti-NIP hIgG1-M252Y/S254T/T256E/H433K/N434F (hIgG1^MST/HN) (from UniProt P01857 1-330) (antibody) | 3.8 | – |
| anti-NIP hIgG2 (hIgG2^WT) (antibody) | 5.2 | 1.4 |
| anti-NIP mouse IgG1 (mIgG1^WT) (antibody) | 0.8 | 8.1 |
| anti-NIP mouse IgG2b (mIgG2b^WT) (antibody) | 4.5 | 5 |

Results, then the substance that gave them:

| Kd [1] [µM] | Kd [2] [µM] | Substance |
| --- | --- | --- |
| 2 | 1.3 | anti-NIP chimeric IgG with wild type human IgG1 Fc and murine anti-NIP antigen-binding domain (hIgG1^WT) (antibody) |
| 3.6 | 3.4 | anti-NIP mouse IgG2a (mIgG2a^WT) (antibody) |
